Source: doi:10.1101/728246 (bioRxiv, 2019)

B1: Mycobacterium tuberculosis Mfd (transcription-repair coupling factor) (natural protein)
chain: MTAPGPACSDTPIAGLVELALSAPTFQQLMQRAGGRPDELTLIAPASARLLVASALARQGPLLVVTATGREADDLAAELRGVFGDAVALLPSWETLPHERLSPGVDTVGTRLMALRRLAHPDDAQLGPPLGVVVTSVRSLLQPMTPQLGMMEPLTLTVGDESPFDGVVARLVELAYTRVDMVGRRGEFAVRGGILDIFAPTAEHPVRVEFWGDEITEMRMFSVADQRSIPEIDIHTLVAFACRELLLSEDVRARAAQLAARHPAAESTVTGSASDMLAKLAEGIAVDGMEAVLPVLWSDGHALLTDQLPDGTPVLVCDPEKVRTRAADLIRTGREFLEASWSVAALGTAENQAPVDVEQLGGSGFVELDQVRAAAARTGHPWWTLSQLSDESAIELDVRAAPSARGHQRDIDEIFAMLRAHIATGGYAALVAPGTGTAHRVVERLSESDTPAGMLDPGQAPKPGVVGVLQGPLRDGVIIPGANLVVITETDLTGSRVSAAEGKRLAAKRRNIVDPLALTAGDLVVHDQHGIGRFVEMVERTVGGARREYLVLEYASAKRGGGAKNTDKLYVPMDSLDQLSRYVGGQAPALSRLGGSDWANTKTKARRAVREIAGELVSLYAKRQASPGHAFSPDTPWQAELEDAFGFTETVDQLTAIEEVKADMEKPIPMDRVICGDVGYGKTEIAVRAAFKAVQDGKQVAVLVPTTLLADQHLQTFGERMSGFPVTIKGLSRFTDAAESRAVIDGLADGSVDIVIGTHRLLQTGVRWKDLGLVVVDEEQRFGVEHKEHIKSLRTHVDVLTMSATPIPRTLEMSLAGIREMSTILTPPEERYPVLTYVGPHDDKQIAAALRRELLRDGQAFYVHNRVSSIDAAAARVRELVPEARVVVAHGQMPEDLLETTVQRFWNREHDILVCTTIVETGLDISNANTLIVERADTFGLSQLHQLRGRVGRSRERGYAYFLYPPQVPLTETAYDRLATIAQNNELGAGMAVALKDLEIRGAGNVLGIEQSGHVAGVGFDLYVRLVGEALETYRDAYRAAADGQTVRTAEEPKDVRIDLPVDAHLPPDYIASDRLRLEGYRRLAAASSDREVAAVVDELTDRYGALPEPARRLAAVARLRLLCRGSGITDVTAASAATVRLSPLTLPDSAQVRLKRMYPGAHYRATTATVQVPIPRAGGLGAPRIRDVELVQMVADLITALAGKPRQHIGITNPSPPGEDGRGRNTTIKERQP
B2: Mycobacterium smegmatis Mfd (natural protein)
chain: MTAPGHTSVQTPIAGLVELALSDPSLQDVIRRAADRPADLALVGPASARVLVAAALAQNGPLLVVAATGREADELTAELRGVFGDSVALFPSWETLPHERLSPGVETVGARLMLLRRLARPDDETLGAPLRVVVTTTRSLLQPMAPDLVDIEPVTLSVGAEMEFEDVVARLVDLSYTRVDMVGKRGEFAVRGGILDVFPPTAEHPVRVEFWGDEISEMRAFAIADQRSIPEVPVQTVVAVPCRELLMTDDVRERAAALAAEHPTTENTVPGTVPDMLAKLAEGIPVDGMEALLPLLHPIEPTTLTRHLPEGAPVLVCDPEKVRTRAADLIKTGREFLEASWSTAAVGGDAPIDLEALGASGFVTFEEAREAAREGGHPWWTLSQLSDESAVELDIRSAPSARGSQHNLEEIFAMLRAHVATGGYAAVVTPGIGTAHRVVEQLGEADTAATILEPGTAPKAGVVGVLKGPLCSGVVLPGANLVIITETDLTGNRVTANEGRKLAAKRRNVVDPLALTAGDLVVHDQHGIGKFVEMTERVVGGARREYLVLEYASSKRGGGTDKLYVPMDSLDQLSRYVGGEAPSLSRLGGSDWANTKTKARRAVREIASELVALYAKRQSAPGHAFGPDTPWQAEMEDAFGFTETIDQLTAIQEVKSDMEKPVPMDRVICGDVGYGKTEIAVRAAFKAVQDGKQVAVLVPTTLLADQHLQTFTNRMAGFPVTVKGLSRFTDPAESRAVIEGLKDGSVDVVIGTHRLLQTGVTWKDLGLIIVDEEQRFGVEHKEHIKSMRTHVDVLTMSATPIPRTLEMSLAGIREMSTILTPPEERYPVLTYVGPHDDKQVAAALRRELLRDGQAFYIHNRVRTIDEAAARVRQLVPEARVVVAHGQMNEETLEKTVEGFWNREYDILVCTTIVETGLDISNANTLIVERADTFGLSQLHQLRGRVGRSRERGYAYFLYPPNKPLTETAYDRLATIAQNNELGAGMAVAMKDLEIRGAGNVLGAEQSGHVAGVGFDLYVRLVGEAVEAYRAAADGKTVATPQEQKDVRIDLPVDAHLPPEYIGSDRLRLEAYRRLAAAADDDAVASVVDELIDRYGPLPEPAQRLVAVARLRLLCREFGITEIGAVSASTVRLSPMVLPDSAQLRLKRMYPGGHYRATTSTVQVPLPRAGEGVGAPRIRDLELVQWVAGLVLVLNGKGQGDVDMSKFSNPAGEAKR

Assays:
[1] = biological target: the molecule itself; experiment: negative-stain EM single-particle reconstruction
SEC = biological target: the molecule itself; experiment: SEC

| Protein | stoichiometry N [1] | stoichiometry N (SEC) |
| --- | --- | --- |
| B1 | 12 | 6 |
| B2 |  | 6 |
